Data as given in article PMC12691273.

Target: CRM1 protein (chromosome region maintenance 1)
Test: co-immunoprecipitation (IP FOXO1, WB CRM1), band quantification
Conditions: chicken granulosa cells, with 740-Y-P; n = 3; parent: est. 1.9; read off a plot

Substance	response
chicken forkhead box O1 (FOXO1) wild-type (from UniProt A0A8V0XGP1) S311A	2
chicken forkhead box O1 (FOXO1) wild-type (from UniProt A0A8V0XGP1) S248A	2
